Where two headings read alike, the source gives them in different places.
Assays:
[1] = tested on: MB49-FFX-ACQ bladder carcinoma cells; assay: Chemotherapy-resistant MB49-FFX-ACQ tumour model in hCD40tg mice; format: in vivo, mouse; settings: FIG. 7B/7C
Method: Note: All mice were dosed with flat doses and mg/kg doses reported herein are based on an average mouse weight of 20 g (0.02 kg).
As FOLFIRINOX is composed of four individual components, it was dosed over the course of two days, for a total of three cycles. Mice first received oxaliplatin followed by irinotecan, followed the day after by folinic acid and 2 hours after that, mice were dosed with 5-fluorouracil.
Three days following the initiation of the dosing of FOLFIRINOX, mitazalimab was administered in 5% glucose (dextrose buffer) at 5 mg/kg.
The dosing regimen applied in the two efficacy studies detailing number of doses and their relation to one another is outlined in FIG. 5. […]
On day 0, ten- to twelve-week-old female hCD40tg mice were injected subcutaneously on the right hind flank with 0.4×10^6 MB49-FOLFIRINOX-ACQ in a volume of 100 μl PBS. […] Controls or antibodies were administered as outlined in Table 24, and mice were monitored shortly following each treatment to detect potential signs of toxicity. Tumor volume was measured three times weekly with a calliper and calculated as: ((width/2×length/2×height/2)×[…]). […]
Collected data was analyzed using Kaplan Meier and Log-rank (Mantel-Cox) for survival and Mann-Whitney, non-parametric, 2-tail for FACS data and tumor growth using GraphPad Prism program (*, p<0.05; **, p<0.01). […]

[2] = tested on: advanced stage solid malignancies; settings: cited from earlier work
[3] = tested on: advanced stage solid tumours; settings: cited from earlier work
[4] = tested on: whole blood transcriptome; assay: RNA-sequencing of peripheral whole blood of MB49 tumour-bearing hCD40tg mice; format: in vivo, mouse; settings: for Differentially expressed genes, p. adj < 0.05 / Differentially expressed genes, p. adj < 0.05 & FC > 2: of 14485 total genes
Description: Peripheral blood was collected from the mice at the end of the first cycle and subjected to RNA-sequencing to identify pharmacodynamic biomarkers. RNA was extracted from whole blood after red blood cell lysis using GLOBINclear™ Kit, mouse/rat (AM1981, Invitrogen), and Mouse RiboPure™-Blood RNA Isolation Kit (AM1951, Invitrogen) according to the manufacturer's instruction. Purified RNA was stored in RNase-free microfuge tubes (AM12425, Invitrogen), and frozen at −80 C until further use.
RNA library preparation and sequencing was performed by the Center for Translational Genomics (CTG, Lund University). RNA integrity was analyzed with the TapeStation 4200 (Agilent Technologies), using Agilent RNA ScreenTape and reagents (5067-5576, 5067-5577, Agilent Technologies). RNA concentration was analyzed with the Qubit Flex (Q33327 Invitrogen Thermo Fisher Scientific), using the QuantIT RNA HS Assay Kit (Q33140, Life Technologies). cDNA sequencing libraries were prepared using TruSeq® Stranded mRNA Library Prep kit (20020594, Illumina). The libraries were sequenced in a NovaSeq 6000 System (20012850, Illumina), using the NovaSeq 6000 SP Reagent Kit, 300 cycles v1.5 20028400). The reads were aligned to the mouse reference genome GRCm38 (mm10) using the STAR software (v 2.5.0a.13).
R (v4.0.3) and R studio (v1.4.1103) were used to perform quality control and thresholding, normalization, dimensionality reduction, and visualization as well as differential gene expression analysis. Protein coding genes with a minimum of 5 reads in 3 or more samples were kept for analysis. For data visualization, filtered raw counts were normalized using the variance-stabilizing-transformation method in the DESeq2 package (version 1.38.3).
Principal component analysis (PCA) was used to visualize the data, and assess the effects of the treatment at transcriptomic level.
To identify differentially expressed genes among treatment groups, filtered raw counts were normalized using the median of ratios method in the DESeq2 package. Treatment groups were compared using the negative binomial Wald's test (adjusted-p.value [adj-p.val]<0.05, fold change>2).
Pathway enrichment analysis was performed using EnrichR (v3.0) by querying differentially expressed genes among treatment groups onto the gene ontology database (GO, GO_bioprocess_2018). Re-occurring and highly ranked pathways (adj.p-value<0.05) were selected and harmonized throughout the samples using gene set variation transformation (GSVA). The resulting GSVA scores were plotted as a spider plot for pathway activity comparison among the groups.

B1: Mitazalimab: agonistic, human monoclonal (IgG1) antibody targeting CD40 (antibody, chains of the INN, looked up, V domains shown)
VH: EVQLLESGGGLVQPGGSLRLSCAASGFTFSTYGMHWVRQAPGKGLEWLSYISGGSSYIFYADSVRGRFTISRDNSENALYLQMNSLRAEDTAVYYCARILRGGSGMDLWGQGTLVTVSS
VL: QSVLTQPPSASGTPGQRVTISCTGSSSNIGAGYNVYWYQQLPGTAPKLLIYGNINRPSGVPDRFSGSKSGTSASLAISGLRSEDEADYYCAAWDKSISGLVFGGGTKLTVL
In the case of B1, the “effect on tumour growth in chemo-resistant tumours” value [1] is listed as “synergises with FOLFIRINOX”, the best response ([2]; 400 μg/kg intratumoural) is listed as “stable disease (SD) in one patient with renal cell carcinoma” and the “patients with increases in liver enzymes or bilirubin” value ([2]; IV administration) is listed as 3 of 5. The “dose-limiting toxicities (DLTs) observed” value ([2]; both intratumoural: grade 3 abdominal pain, grade 3 cholecystitis) was “Two”, the “maximum tolerated dose (MTD)” value ([2]; in vivo) was “No maximum tolerated dose (MTD) was identified” and the “patients with increases in liver enzymes or bilirubin” value ([2]; intratumoural administration) was 9 of 18. For the same molecule, the “doses shown safe and well tolerated” value ([3]; Phase I study NCT02829099) was “up to 1200 μg/kg”, the “grade of most drug related adverse events” value ([3]; Phase I study NCT02829099) was “grade 1 or 2” and the “patients who experienced a DLT” value ([3]; headache 5 days, grade 3 liver enzyme with grade 2 bilirubin elevation) was “Two”. The MTD ([3]; human, in vivo, iv) was “No MTD was identified”, the “duration of SD in one of seven pancreatic cancer patients” value ([3]; in vivo) was “more than 6 months” and the response observed ([3]; patient with renal cell cancer, 1200 μg/kg) was “partial response (PR)”. For the same molecule, the “time on study of the patient with PR” value ([3]; renal cell cancer, 1200 μg/kg, fourteen cycles) was 9.2 months, the “expression of genes involved in response to type-1 IFN and TLR signaling” value ([4]; alone or in combination with FOLFIRINOX) was “high expression” and the “Differentially expressed genes, p. adj < 0.05” value ([4]; vs Folfirinox) was 3953. The “Differentially expressed genes, p. adj < 0.05 & FC > 2” value ([4]; vs Folfirinox) was 1717, the “Differentially expressed genes, p. adj < 0.05” value ([4]; vs Mita-Folfirinox) was 453 and the “Differentially expressed genes, p. adj < 0.05 & FC > 2” value ([4]; vs Mita-Folfirinox) was 221. For the same molecule, the “Differentially expressed genes, p. adj < 0.05” value ([4]; vs untreated) was 2114 and the “Differentially expressed genes, p. adj < 0.05 & FC > 2” value ([4]; vs untreated) was 849.
